Laboratory results published in patent US12351833B2, “Unspecific peroxygenase enzyme variants for selective fatty acid epoxidation or hydroxylation” (CONSEJO SUPERIOR DE INVESTIGACIONES CIENTÍFICAS (CSIC), priority 2019, dated 2025).

How the values were obtained:
Type in all cases: biochemical
[1] = Reaction of UPO enzyme with oleic acid and H2O2, products analysed by GC-MS; conditions: for Conversion of the substrate (oleic acid) into products / selectivity towards only epoxidation (ratio between only epoxides and other oxygenation products) / share of products that are only epoxides / share of products that are other (hydroxylated) epoxides / epoxidation activity / epoxidized species detected (words): enzyme 0.2 μM, oleic acid 100 μM, H2O2 2,500 μM; for Conversion of the substrate (oleic acid) into products: 30° C., 50 mM phosphate pH 5.5, 30 min, 20% acetone; for selectivity towards only epoxidation (ratio between only epoxides and other oxygenation products) / share of products that are only epoxides / share of products that are other (hydroxylated) epoxides / epoxidation activity / epoxidized species detected (words): pH 5.5, 30° C., 30 min
Procedure: The rMroUPO (0.2 μM) was incubated with oleic acid (100 μM) and H2O2 (2,500 μM) at 30° C. in 50 mM phosphate, pH 5.5, for 30 min. Oleic acid had been previously dissolved in acetone so that the final acetone concentration attained 20% (v/v) in the embodiment. After the incubation time, the products were recovered by liquid-liquid extraction with t-butyl-methyl-ether. The organic solvent was removed under N2 current. N,O-Bis-(trimethylsilyl)trifluoroacetamide was employed to prepare the trimethylsilyl derivatives of the compounds to be separated by gas chromatography and identified by mass spectrometry.
(§1) Chromatographic analyses were carried out in a gas chromatograph coupled to a mass-spectrometry detector. The column used was a fused-silica DB-5HT capillary column (30 m×0.25 mm internal diameter×0.1 μm film thickness). Oven was heated from 120° C. (1 min) to 300° C. (5 min) at 5° C.·min. Injection was performed at 300° C. and transfer line was maintained at 300° C. Compounds were identified by comparison of their mass spectra with those of authentic standards and those from the NIST and Wiley libraries as well as by mass fragmentography. Quantification of the products was carried out by integrating the total ion peak areas, using external standard curves of the same or closely related compounds.
Reactions with oleic acid and identification and quantification of the products were conducted as explained in Example 3.
The rMroUPO I153F/S156F mutated variant (SEQ ID NO: 3), in which isoleucine 153 and serine 156 were both replaced by phenylalanine residues, was constructed by site-directed mutagenesis, in a PCR reaction in which the following oligos—complementary to the region of the gene to be mutated, but bearing the desired mismatches—were used as primers: 5′-[…]-3′ (SEQ ID NO: 8), along with its reverse complementary counterpart. PCR reaction and sequencing of the mutated variant were carried out as described in Example 4. Expression, purification of the enzyme, reactions with oleic acid and GC-MS identification and quantification of the products were conducted as in Example 3.

[2] = Reaction of UPO enzyme with linoleic acid and H2O2, products analysed by GC-MS; conditions: for Conversion of linoleic acid / selectivity towards only epoxidation (ratio between only epoxides and other oxygenation products) / share of products that are hydroxylated epoxides / share of products that are only epoxides: enzyme 0.6 μM, linoleic acid 100 μM, H2O2 1,250 μM; for Conversion of linoleic acid: 30° C., 50 mM phosphate pH 5.5, 30 min, 20% acetone; for selectivity towards only epoxidation (ratio between only epoxides and other oxygenation products) / share of products that are hydroxylated epoxides / share of products that are only epoxides: pH 5.5, 30° C., 30 min
Procedure: as §1
An embodiment was designed in which rMroUPO (0.6 μM) was incubated with linoleic acid (100 μM, previously dissolved in acetone so that the final acetone concentration in the embodiment was of 20%) and H2O2 (1,250 μM) at 30° C. in 50 mM phosphate, pH 5.5, for 30 min. Identification and quantification of the products was conducted as detailed in Example 3.
Reactions were performed as in Example 6. Identification and quantification of the products is described in Example 3.

[3] = Reaction of UPO enzyme with α-linolenic acid and H2O2, products analysed by GC-MS; conditions: for Conversion of α-linolenic acid: 30° C., 50 mM phosphate pH 5.5, 30 min
Procedure: as §1
Reactions were performed in an embodiment consisting of rMroUPO (0.2 μM), incubated with α-linolenic acid (100 μM) and H2O2 (1,250 μM) at 30° C., in 50 mM phosphate, pH 5.5, for 30 min. Extraction and separation of the reaction products was carried out as described in Example 3. Since no available commercial standards of epoxidized α-linolenic acid were available, they were chemically synthesised as follows: a solution of peracetic acid (1.8 mmol, 3.6 equiv) and NaOAc (0.7 mmol; 1.4 equiv) was added to α-linolenic acid (0.5 mmol) using a syringe pump at 0° C. for 1 h. The mixture was stirred at 0° C. for an additional h. Products were recovered by liquid-liquid extraction with t-butyl-methyl-ether, resulting in a mixture of mono- and di-epoxides. Identification of the compounds was made by comparison of the mass spectra with those of the synthesised standards and by mass fragmentography. Quantification was carried out as detailed in Example 3.
Reactions and analyses of the products were performed as in Example 8. FIG. 7 illustrates a chromatogram of the reaction products, among which single epoxides, di-epoxides and other epoxidized derivatives. Conversion of the substrate attained 97%, of which 92% (of which 88% are di-epoxides) represented only epoxides and a mere 8% other epoxide derivatives. Therefore, the selectivity towards only epoxidation reached 11.50.

[4] = enzyme 0.2 μM, α-linolenic acid 100 μM, H2O2 1,250 μM
[5] = α-linolenic acid 100 μM, enzyme 0.2 μM, H2O2 1,250 μM, pH 5.5, 30° C., 30 min

Row | Molecule | Conversion of the substrate (oleic acid) into products [1] [%] | selectivity towards only epoxidation (ratio between only epoxides and other oxygenation products) [1] | share of products that are only epoxides [1] [%] | share of products that are other (hydroxylated) epoxides [1] [%] | Conversion of linoleic acid [2] [%] | selectivity towards only epoxidation (ratio between only epoxides and other oxygenation products) [2] | share of products that are hydroxylated epoxides [2] [%] | share of products that are only epoxides [2] [%] | Conversion of α-linolenic acid [3, 4] [%] | selectivity towards only epoxidation (ratio between only epoxides and other oxygenation products) [3, 5] | share of products that are only epoxides [3, 5] [%] | share of products that are other epoxides / other epoxide derivatives [3, 5] [%] | also measured
1 | rMroUPO: recombinant Marasmius rotula unspecific peroxygenase, SEQ ID NO: 1, encoded by SEQ ID NO: 9, expressed in E. coli (protein, Recombinant Marasmius rotula unspecific peroxygenase enzyme, rMroUPO) SAHPWKAPGPNDSRGPCPGLNTLANHGFLPRNGRNISVPMIVKAGFEGYNVQSDILILAGKIGMLTSREADTISLEDLKLHGTIEHDASLSREDVAIGDNLHFNEAIFTTLANSNPGADVYNISSAAQVQHDRLADSLARNPNVTNTDLTATIRSSESAFFLTVMSAGDPLRGEAPKKFVNVFFREERMPIKEGWKRSTTPITIPLLGPIIERITELSDWKPTGDNCGAIVLSPEL | 94 | 0.67 | 40 | 57 | 98 | 0.27 | 79 | 21 | 98 | 0.79 | 44 | 56 | 
2 | rMroUPO I153F/S156F mutated variant: rMroUPO in which isoleucine 153 and serine 156 were both replaced by phenylalanine (SEQ ID NO: 3) (protein, Variant of the invention which comprises the SEQ ID NO 1 and the amino acid substitutions I153F and S156F) SAHPWKAPGPNDSRGPCPGLNTLANHGFLPRNGRNISVPMIVKAGFEGYNVQSDILILAGKIGMLTSREADTISLEDLKLHGTIEHDASLSREDVAIGDNLHFNEAIFTTLANSNPGADVYNISSAAQVQHDRLADSLARNPNVTNTDLTATFRSFESAFFLTVMSAGDPLRGEAPKKFVNVFFREERMPIKEGWKRSTTPITIPLLGPIIERITELSDWKPTGDNCGAIVLSPEL |  |  |  |  |  |  |  |  |  |  |  |  | epoxidation activity / epoxidized species detected (words) ([1]; listed as I153F/S156F mutated variant): completely abolishes the epoxidation activity; epoxidation activity / epoxidized species detected (words) ([1]; listed as I153F/S156F variant): completely abolished the MroUPO ability to epoxidize oleic acid; epoxidation activity / epoxidized species detected (words) ([1]; listed as MroUPO I153F/S156F mutated variant): No traces of epoxidized species were detected; selectivity towards hydroxylation ([1]; oleic acid, products restricted to ω-1 and ω hydroxylated, keto and carboxylic species): total towards hydroxylation
3 | rMroUPO I153T mutated variant: rMroUPO in which isoleucine 153 was replaced by threonine (SEQ ID NO: 2) (protein, Variant of the invention which comprises the SEQ ID NO 1 and the amino acid substitution I153T) SAHPWKAPGPNDSRGPCPGLNTLANHGFLPRNGRNISVPMIVKAGFEGYNVQSDILILAGKIGMLTSREADTISLEDLKLHGTIEHDASLSREDVAIGDNLHFNEAIFTTLANSNPGADVYNISSAAQVQHDRLADSLARNPNVTNTDLTATTRSSESAFFLTVMSAGDPLRGEAPKKFVNVFFREERMPIKEGWKRSTTPITIPLLGPIIERITELSDWKPTGDNCGAIVLSPEL | 85 | 2.67 | 72 | 17 | 93 | 0.72 | 58 | 42 | 97 | 11.50 | 92 | 8 | increase of epoxidation selectivity relative to rMroUPO ([1]; oleic acid): 4 fold; ratio between stearic acid epoxide and its additionally hydroxylated derivatives (words, vs MroUPO) ([1]; oleic acid): increased; increase of epoxidation selectivity relative to rMroUPO ([2]; linoleic acid): 2.7 fold; increase of epoxidation selectivity relative to rMroUPO ([3]; α-linolenic acid): 14.6 fold; share of di-epoxides among only epoxides [3, 5]: 88%
